Experimental data as given in US20230357364A1.

Biological target: SARS-CoV-1 RBD (RBD-1) (SARS-CoV-1)
Assay: ELISA
Conditions: remark: other sources report otherwise

B1: L12.bP11A06 (antibody, V domains shown)
VH: EVQLVESGGGLIQPGGSLRLSCAASGLTVSSNYMSWVRQAPGKGLEWVSVIYSGGSTFYADSVKGRFTISRDNSKNTLYLQMNSLRAEDTAVYYCARDLDVYGLDVWGQGTTVTVSS
VL: DIVMTQSPSFLSASVGDRVTITCRASQGISSYLAWYQQKPGKAPKLLIYAASTLQSGVPSRFSGSGSGTEFTLTISSLQPEDFATYYCQQLNSYPPKFTFGPGTKVEIK
B1 was tested, and the EC50 was over 50 µg/mL.
